Assay results taken from patent US11672846B2, “Soluble bacterial and fungal proteins and methods and uses thereof in inhibiting and dispersing biofilm” (priority 2014, dated 2023).
“Also recorded” adds a separate entry of the source. Like-named read-outs stand apart in the source and are kept apart here.

Key:
[1] = Reducing sugar assay on dPNAG; format: biochemical, S. aureus
Procedure: Isolated dPNAG from S. aureus strain MN8m was solubilized in 6 N HCl at ˜10 mg/mL. 10 N NaOH was used to titrate the re-suspension until neutrality was reached, ˜pH 7-8. In a 50 μL reaction, 1 μM BpsB318-670 was incubated with 1-5 mg/mL of dPNAG in 100 mM HEPES pH 7.0 for 18 hours. The sample was split into two 20 μL aliquots and treated with DTT/3-Methyl-2-benzothiazolinone hydrazone hydrochloride hydrate and heated at 80° C. for 15 minutes. A solution of 0.5% (w/w) iron (III) ammonium sulfate dodecahydrate, 0.5% (w/w) sulfamic acid, and 0.25 N hydrochloric acid was added, mixed, and cooled to room temperature. […] Protein and dPNAG in buffer H were used as background controls.

[2] = test system: PNAG-overproducing E. coli biofilms; assay: Dispersal of pre-formed PNAG-dependent E. coli biofilms; conditions: read-out: EC50 of degradation of pre-formed E. coli biofilm; 60 min, average starting OD595 of 0.5
Procedure: Bacterial cultures expressing Psl were inoculated as stated above and were grown at 37° C. overnight with shaking at 200 rpm. All cultures were diluted in 1:100 in LB and arabinose was added to a final concentration of 0.5% (w/v) to induce Psl biosynthesis. Media containing the Psl-producing cultures were supplemented with 200 μg/mL ampicillin and 100 μg/mL kanamycin. The cultures were incubated statically for 24 h at 26° C. to allow for biofilm formation. After incubation non-adherent cells and media were removed by washing the plate with deionized water three times. The wells were filled with 95 μL of 100 mM sodium HEPES buffer pH 7.0 followed by 5 μL of varying concentrations of each hydrolytic enzyme (2 nM-5 μM). Reactions were allowed to proceed for up to 60 min at 25° C. on a rotating nutator at which time, the reaction was quenched by washing the plates with deionized water. The wells were stained with 200 μL of 0.1% (w/v) crystal violet for 10 min, and washed with water three times. Crystal violet dye from Psi cultures was solubilized in 100 μL of 95% ethanol for 10 min with rotation, after which time the absorbance was measured at 595 nm using a SpectraMax M2 from Molecular Devices (Sunnyvale, Calif.). The amount of biofilm is proportional to the absorbance from staining with crystal violet (Merritt et al 2005). All reactions were completed in at least triplicate and 100 mM sodium HEPES buffer pH 7.0 was used as an untreated control. The addition of 2.5 mg/mL kanamycin to culture prior to biofilm formation was used as a positive control as no cell growth occurs.
PNAG-overproducing E. coli was grown at 37° C. overnight in LB broth supplement with 200 ug/mL ampicillin and 100 ug/mL kanamycin with shaking at 200 rpm. An E. coli μgaABCD knockout strain was used as a non-biofilm forming control for background straining.

[3] = test system: PNAG-overproducing E. coli; assay: Inhibition of PNAG-dependent E. coli biofilm formation (crystal violet); conditions: read-out: EC50 of E. coli biofilm formation prevention, static 24 h at 26° C.
Procedure: In brief, PNAG-overproducing E. coli or S. carnosus was grown at 37° C. overnight in LB broth supplement with 200 μg/mL ampicillin and 100 μg/mL kanamycin, and 10 μg/mL tetracycline, respectively, with shaking at 200 rpm. Fresh cultures with antibiotic were prepared from the overnight culture using a 1:100 dilution, using LB broth for E. coli, and tryptic soy broth for S. carnosus. 95 μL of diluted culture was added to a sterile 96-well polystyrene round bottom microtiter plate and varying concentrations of protein (2 nM-5 μM) were added in 5 μL aliquots to give a final volume of 100 μL. The cultures were incubated statically for 24 h at 26° C. for E. coli, and 37° C. for S. carnosus, to allow for biofilm formation. To eliminate edge-effects, ˜200 μL of sterile water was placed in all outside wells and the plate was sealed with parafilm. After incubation non-adherent cells and media were removed by washing the plate with deionized water three times. The wells were stained with 150 μL of 0.1% (w/v) crystal violet for 10 min, and washed with water three times. The remaining dye was solubilized with 100 μL of 33% (v/v) acetic acid for 10 min with rotation, after which time the absorbance was measured at 595 nm using a SpectraMax M2 from Molecular Devices (Sunnyvale, Calif.). […] All reactions were completed in at least triplicates and buffer G was used as an untreated control. Either an E. coli pgaABCD knockout strain (DPGA) or S. carnosus treated with gentamycin, was used as a control for background straining.

[4] = test system: pre-formed A. fumigatus GAG biofilms; format: cell-based; conditions: for dispersal of pre-formed GAG biofilm (in words): crystal violet
A. fumigatus GAG biofilm = assay: Inhibition of GAG-dependent A. fumigatus biofilm formation (crystal violet); format: cell-based
[5] = test system: A549 pulmonary epithelial cell line injured by A. fumigatus; assay: Chromium release epithelial cell damage assay; conditions: recombinant Sph3 hydrolases, up to 24 h
Procedure: The immortalized airway epithelial cell line A549 was loaded with chromium-51 by incubating monolayers grown in 24-well tissue culture plates with 3 mCi of ^51Cr at 37° C. in 5% CO2 for 24 h. Excess chromium was removed by washing with Hank's Balanced Salt Solution (HBSS). […] For testing germ tubes, conidia were grown for 7 h in SAB media at 37° C., then the fungus was collected and resuspended in DF12K media before 0.5 μM of hydrolase was added. The germ tubes were incubated with hydrolase for 1 h before being added to the A549 cells. After 16, 20 and 24 h of co-incubation, an aliquot of the medium above the cells was retrieved and replaced with fresh media. The cells were then lysed with 6 N NaOH and the lysate collected. The ^51Cr content of the medium and lysates was then measured in a gamma counter and the extent of epithelial cell damage was calculated as a function of the degree of ^51Cr release. Each strain was tested in triplicate, and all results were corrected for spontaneous chromium release by uninfected epithelial cells.
The methodology for prevention of epithelial cell damage caused by A. fumigatus using Sph352-298 is identical to that previously described in Example 19 for the use PelA47-303.

[6] = purified protein
[7] = Reducing sugar assay on purified GAG; format: biochemical, A. fumigatus; conditions: 10-20 μM protein, 26° C., 24 h
Procedure: Crude GAG was isolated from A. fumigatus biofilms. 200 μL GAG aliquots were centrifuged to pellet the gelatinous fraction. The pellets were washed twice with 350 μL PBS. The wash procedure included vortexing for 5 min, sonicated in a bath for 3 min, and manual mixing by pipetting to reach homogeneity. The final pellet was resuspended in 200 μL of PBS. Samples were treated with 10-20 μM protein and incubated at 26° C. Samples were taken at 24 h. GAG hydrolysis was quantified using a reducing sugar assay as described previously (Anthon & Barrett 2002) with slight modifications. Briefly, 20 μL of enzyme reaction was mixed with 20 μL of 0.5 M NaOH and 20 μL of MBTH/DTT solution (1.5 mg/L 3-methyl-2-benzothiazolinone hydrazine (MBTH) and 0.5 mg/L DTT). The samples were incubated at 80° C. for 15 min before the addition of 40 μL of acidic iron reagent (0.5% (FeNH4(SO4)2).12 H2O, 0.5% sulfamic acid, and 0.25 N HCl). Samples were diluted two-fold in water, before the absorbance was quantified at 620 nm.

Molecule	dPNAG hydrolysis (in words) [1]	EC50 [2] [nM]	EC50 [3] [nM]	dispersal of pre-formed GAG biofilm (in words) [4]	inhibition of A. fumigatus biofilm formation by recombinant Sph3 (in words) (A. fumigatus GAG biofilm)	epithelial cell damage by A. fumigatus, chromium release [5]	concentration to which the protein could be concentrated [6] [µg/mL]	further results
BpsB27-701: full-length BpsB residues 27-701, B. bronchiseptica RB50, SEQ ID NO: 18 (protein, listed as Bordetella bronchiseptica) YKVDMLPPPDPDDGLTFRVLCMHDVRDNLRASFADMPDQFAIETRTLTDLFEWIRVKGFNPISMQQIIDSRAGVRPLPPRPILLTFDDGYASTYTKVFPLLKKFNYPAVVAVVTSWTDAPAGTKIRLSPKIEVPHDFFMTWAQLREMAQSGLVELASHSHNLHRGVLANPQGNEQPAASSRQYLPASGRYENDAEYRARVRQDLKTSADLIREHTGVTIRSIVWPYGAHNRDTDQVAAEVGLNIGLTLQPGPNTPDVALTQIRRSLVDYEVNVATVARAMREPVSYHGQVRPIERIVQVDLDYIYDPDPEQQNRNLGQLIDRMKDLAPSAVYLQAFADPKGDGDITEVYFPNRHLPMRADLFNRVAWQLKTRAGVMVYAWLPVLTFSVPPGNPAYGKVVQSTTRKPGERGLGSPTRLSPFHPDAHRVISEIYEDLAKAAHFDGLLFHDDAVLDDTEDSSPEALATYQGWGLPPDIAAIRADPKLAQQWSKGKIRYLIDFTMHLRHIVSGYQNDRDMVVARNLYAQPVLDPVSEAWYGQSLPEFLKSYDFVALMAMPNMEGAARPEQWMRQLVAAVARQKGLDRTIFELQARDWRVGKPIDTEILRRQMVQLRSLGAINYGYYPDDFIANHPDAEALRDVMSLKSTLEKRRLTKAQELSRQTTLYGSASQAEPTQR	hydrolyze dPNAG	~170	~40	–	–	–	–	–
GmetPelA23-277: PelA ortholog, residues 23-277, from Geobacter metallireducens, SEQ ID NO: 14 (protein, listed as Geobacter metallireducens) PPLSVALYYGKQPPVNDLHAFDIVVIDPDSGLTPSEYGSGRSELFAYVSVGEADTARSYTKQMPDRWIIGKNPVWKSKIVDVSSEEWKQFFLDDVVEPLWQAGYRGFFLDTLDSYLIAAPTEAHPRMEAGLVSVVRAIRQRHPEARLILNRGFEIFDRVKDLVYAVAAESLFQNFNTVSGKYGAVDDKDRSWLTSRLNVIRETGVPVIAIDYVDPGNRPLMRETADKIRSLGFTPWVTDKDLAGLGIGSVEVMPRTVLGLYDGGEGAG	–	–	–	less efficacious	–	–	–	dispersal of pre-formed GAG biofilm (in words) ([4]; listed as GmPelA23-277): less effective at eliminating GAG biofilms
Sph3AN(43-299): Sph3 ortholog residues 43-299, Aspergillus nidulans FGSC A4, SEQ ID NO: 23 (protein, Aspergillus nidulans) RRKNNNMGPKAKVFVPLYVYPAPGAWDPLVNVITAHPDVNFTVVVNPGSGPGPNPLPDRNYTQEIPRLTAHDNVRVLGYVATTYAKRNISSVRNDIETYAAWPTISANPKLAVRGIFFDETPQQYNASDLAYLEELTSVVKNTPGLGPDHFVFHNPGVVPDPRYLSTADSTVVFEATYDTFQDRDGARLFETIPNSNRSQLCAVVHSVPDSVEGSELRKFVKQARRVADEIFVTHLSTNYYASFGDKWDDFVRLMAQ	–	–	–	–	inhibit the formation of A. fumigatus biofilms in a dose dependent manner	completely protected epithelial cells from damage by A. fumigatus for 24 h	–	epithelial cell damage by A. fumigatus, chromium release ([5]; listed as Sph3 from A. nidulans): reduced fungal damage to epithelial cells
PgaB310-672: PgaB C-terminal hydrolase domain residues 310-672, SEQ ID NO: 17 (protein, listed as Escherichia coli) EKSPQRIMHIDLDYVYDENLQQMDRNIDVLIQRVKDMQISTVYLQAFADPDGDGLVKEVWFPNRLLPMKADIFSRVAWQLRTRSGVNIYAWMPVLSWDLDPTLTRVKYLPTGEKKAQIHPEQYHRLSPFDDRVRAQVGMLYEDLAGHAAFDGILFHDDALLSDYEDASAPAITAYQQAGFSGSLSEIRQNPEQFKQWARFKSRALTDFTLELSARVKAIRGPHIKTARNIFALPVIQPESEAWFAQNYADFLKSYDWTAIMAMPYLEGVAEKSADQWLIQLTNQIKNIPQAKDKSILELQAQNWQKNGQHQAISSQQLAHWMSLLQLNGVKNYGYYPDNFLHNQPEIDLIRPEFSTAWYPKND	hydrolyze dPNAG	200	~230	–	–	–	8000 to 10000	–
Sph352-298: soluble Sph3 residues 52-298, Aspergillus fumigatus Af293, SEQ ID NO: 20 (protein, listed as Aspergillus fumigatus) SKVFVPLYVYPAPGAWTPLEDVISKHPDVNFTVVINPGSGPGPNALPDGNYTREIPKLASYENVRLLGYVATTYAKRNISLVRRDIETYAAWPTNSSNPALAVRGIFFDETPQQYDEDALAYLQELTDVVKNTPGLGPDHYVVHNPGAIPDSRYLSTADSTVVFEATYDTFQERHGAKLFEAIPDSNRSQLCAVIHSVPESVEGSALRSLVKQVRKVADEIFITHLDTDYYASFGRQWPEFVDLMGK	–	–	–	elimination of the GAG biofilms; also recorded: capable of disrupting GAG-dependent biofilms	inhibit the formation of A. fumigatus biofilms in a dose dependent manner	reduced fungal damage to epithelial cells	8000 to 10000	GAG hydrolysis, reducing ends (in words) [7]: number of reducing ends in solution increased; activity against preformed biofilms of multiple A. fumigatus strains / clinical isolates [4]: dose-dependent activity; also recorded: active against multiple strains of A. fumigatus; concentration sufficient at preventing GAG biofilm formation ([4]; FIG. 36, crystal violet): 280 nM
PgaB22-672: PgaB residues 22-672, E. coli K-12 MG1655, SEQ ID NO: 16 (protein, listed as Escherichia coli) ISQSRTSFIPPQDRESLLAEQPWPHNGFVAISWHNVEDEAADQRFMSVRTSALREQFAWLRENGYQPVSIAQIREAHRGGKPLPEKAVVLTFDDGYQSFYTRVFPILQAFQWPAVWAPVGSWVDTPADKQVKFGDELVDREYFATWQQVREVARSRLVELASHTWNSHYGIQANATGSLLPVYVNRAYFTDHARYETAAEYRERIRLDAVKMTEYLRTKVEVNPHVFVWPYGEANGIAIEELKKLGYDMFFTLESGLANASQLDSIPRVLIANNPSLKEFAQQIITVQEKSPQRIMHIDLDYVYDENLQQMDRNIDVLIQRVKDMQISTVYLQAFADPDGDGLVKEVWFPNRLLPMKADIFSRVAWQLRTRSGVNIYAWMPVLSWDLDPTLTRVKYLPTGEKKAQIHPEQYHRLSPFDDRVRAQVGMLYEDLAGHAAFDGILFHDDALLSDYEDASAPAITAYQQAGFSGSLSEIRQNPEQFKQWARFKSRALTDFTLELSARVKAIRGPHIKTARNIFALPVIQPESEAWFAQNYADFLKSYDWTAIMAMPYLEGVAEKSADQWLIQLTNQIKNIPQAKDKSILELQAQNWQKNGQHQAISSQQLAHWMSLLQLNGVKNYGYYPDNFLHNQPEIDLIRPEFSTAWYPKND	hydrolyze dPNAG	> 1000	~90	–	–	–	–	–
